# Results taken from PMC9352680, “A comprehensive thermodynamic model for RNA binding by the Saccharomyces cerevisiae Pumilio protein PUF4”.
# T1: PUF4 RNA-binding domain (Saccharomyces cerevisiae, UniProt P25339 537-888)
# T1 sequence: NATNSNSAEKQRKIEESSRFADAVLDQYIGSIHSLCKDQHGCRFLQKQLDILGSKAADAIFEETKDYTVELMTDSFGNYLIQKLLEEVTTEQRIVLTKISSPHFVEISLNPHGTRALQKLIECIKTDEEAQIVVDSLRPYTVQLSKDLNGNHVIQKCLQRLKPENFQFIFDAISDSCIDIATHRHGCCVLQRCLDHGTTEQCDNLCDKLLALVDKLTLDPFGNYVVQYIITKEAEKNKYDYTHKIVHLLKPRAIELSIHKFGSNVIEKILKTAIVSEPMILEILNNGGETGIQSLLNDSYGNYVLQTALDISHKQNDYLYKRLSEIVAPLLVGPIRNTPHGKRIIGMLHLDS
# Target: T1, PUF4 RNA-binding domain
# Assay: Mg; RNA-MaP; 20 mM Na-HEPES pH 7.4, 30 mM KOAc, 0.75 mM MgCl2, 0.1% Tween-20, 5% glycerol, 0.1 mg/mL BSA, 2 mM DTT; 25 C; 0.0125-409.6 nM protein
# Conditions: tags: N-His6-TEV cleaved; C-SNAP kept, Cy3B-labelled; label: tethered on chip by stalled RNA polymerase
row,Binder,Kd [nM]
1,UCUCUUUGUCUAUUGUCUCUU (ssRNA) [Ib_S1_P4E.1_K4.1_C4.1_H4.1_[A4C]_A4.1_F4.1_[A9G]_T4.1],569
2,UCUCUUUGUUUAUUGUCUCUU (ssRNA) [Ib_S1_P4E.1_K4.1_C4.1_H4.1_[A4T]_A4.1_F4.1_[A9G]_T4.1],163
3,UCUCUUUGUGUAUUCUCUCUU (ssRNA) [Ib_S1_P4E.1_K4.1_C4.1_H4.1_[A4G]_A4.1_F4.1_[A9C]_T4.1],40.4
4,UCUCUUUGUCUAUUCUCUCUU (ssRNA) [Ib_S1_P4E.1_K4.1_C4.1_H4.1_[A4C]_A4.1_F4.1_[A9C]_T4.1],1920
5,Ic_S4_P4E.1_K4.1_C4.1_H4.1_A4.1_[T5G]_[A6C]_[T7G]_F4.1_[T8G]_[A9C]_T4.1 (ssRNA) RNA: UUUGACAACUGAUCGUUCUUUCUUGUAGCGGCUUCUUUCUCGAUCAGUUGUCUUU,> 2300
6,Ic_S4_P4E.1_K4.1_C4.1_H4.1_A4.1_[T5G]_[A6C]_[T7C]_F4.1_[T8C]_[A9C]_T4.1 (ssRNA) RNA: UUUGACAACUGAUCGUUCUUUCUUGUAGCCCCUUCUUUCUCGAUCAGUUGUCUUU,786
7,Ic_S4_P4E.1_K4.1_C4.1_H4.1_A4.1_[T5G]_[A6C]_[T7C]_F4.1_[T8C]_T4.1 (ssRNA) RNA: UUUGACAACUGAUCGUUCUUUCUUGUAGCCCAUUCUUUCUCGAUCAGUUGUCUUU,997
8,Ic_S4_P4E.1_K4.1_C4.1_H4.1_A4.1_[T5G]_[A6C]_[T7A]_F4.1_[T8G]_[A9T]_T4.1 (ssRNA) RNA: UUUGACAACUGAUCGUUCUUUCUUGUAGCAGUUUCUUUCUCGAUCAGUUGUCUUU,495
9,Ic_S4_P4E.1_K4.1_C4.1_H4.1_A4.1_[T5G]_[A6C]_[T7C]_F4.1_[T8A]_T4.1 (ssRNA) RNA: UUUGACAACUGAUCGUUCUUUCUUGUAGCCAAUUCUUUCUCGAUCAGUUGUCUUU,780
10,Ic_S4_P4E.1_K4.1_C4.1_H4.1_A4.1_[T5G]_[A6C]_[T7A]_F4.1_[T8A]_[A9C]_T4.1 (ssRNA) RNA: UUUGACAACUGAUCGUUCUUUCUUGUAGCAACUUCUUUCUCGAUCAGUUGUCUUU,1350
11,Ic_S4_P4E.1_K4.1_C4.1_H4.1_A4.1_[T5G]_[A6C]_[T7C]_F4.1_[T8A]_[A9T]_T4.1 (ssRNA) RNA: UUUGACAACUGAUCGUUCUUUCUUGUAGCCAUUUCUUUCUCGAUCAGUUGUCUUU,428
12,Ic_S4_P4E.1_K4.1_C4.1_H4.1_A4.1_[T5G]_[A6C]_[T7C]_F4.1_[A9C]_T4.1 (ssRNA) RNA: UUUGACAACUGAUCGUUCUUUCUUGUAGCCUCUUCUUUCUCGAUCAGUUGUCUUU,747
13,Ic_S4_P4E.1_K4.1_C4.1_H4.1_A4.1_[T5G]_[A6C]_[T7A]_F4.1_[T8C]_T4.1 (ssRNA) RNA: UUUGACAACUGAUCGUUCUUUCUUGUAGCACAUUCUUUCUCGAUCAGUUGUCUUU,772
14,Ic_S4_P4E.1_K4.1_C4.1_H4.1_A4.1_[T5G]_[A6C]_[T7C]_F4.1_[T8C]_[A9G]_T4.1 (ssRNA) RNA: UUUGACAACUGAUCGUUCUUUCUUGUAGCCCGUUCUUUCUCGAUCAGUUGUCUUU,1440
15,Ic_S4_P4E.1_K4.1_C4.1_H4.1_A4.1_[T5G]_[A6C]_[T7A]_F4.1_[A9G]_T4.1 (ssRNA) RNA: UUUGACAACUGAUCGUUCUUUCUUGUAGCAUGUUCUUUCUCGAUCAGUUGUCUUU,51.3
16,Ic_S4_P4E.1_K4.1_C4.1_H4.1_A4.1_[T5G]_[A6C]_[T7G]_F4.1_[T8C]_[A9C]_T4.1 (ssRNA) RNA: UUUGACAACUGAUCGUUCUUUCUUGUAGCGCCUUCUUUCUCGAUCAGUUGUCUUU,1050
17,Ic_S4_P3E.1_K3.1_C3.1_H3.1_A3.1_[T5C]_F3.1_[T7C]_[A8C]_T3.1 (ssRNA) RNA: UUUGACAACUGAUCGUUCUUUCUUGUACACCUUCUUUCUCGAUCAGUUGUCUUU,26.4
18,Ic_S4_P3E.1_K3.1_C3.1_H3.1_A3.1_[A6C]_F3.1_[T7G]_[A8G]_T3.1 (ssRNA) RNA: UUUGACAACUGAUCGUUCUUUCUUGUAUCGGUUCUUUCUCGAUCAGUUGUCUUU,1930
19,Ic_S4_P3E.1_K3.1_C3.1_H3.1_A3.1_[T5C]_F3.1_[T7A]_T3.1 (ssRNA) RNA: UUUGACAACUGAUCGUUCUUUCUUGUACAAAUUCUUUCUCGAUCAGUUGUCUUU,41.6
20,Ic_S4_P3E.1_K3.1_C3.1_H3.1_A3.1_F3.1_[A8T]_T3.1 (ssRNA) RNA: UUUGACAACUGAUCGUUCUUUCUUGUAUAUUUUCUUUCUCGAUCAGUUGUCUUU,3.03
21,Ic_S4_P3E.1_K3.1_C3.1_H3.1_A3.1_[T5C]_F3.1_[A8T]_T3.1 (ssRNA) RNA: UUUGACAACUGAUCGUUCUUUCUUGUACAUUUUCUUUCUCGAUCAGUUGUCUUU,2.28
22,Ic_S4_P3E.1_K3.1_C3.1_H3.1_A3.1_[T5A]_[A6T]_F3.1_[T7A]_[A8G]_T3.1 (ssRNA) RNA: UUUGACAACUGAUCGUUCUUUCUUGUAAUAGUUCUUUCUCGAUCAGUUGUCUUU,1240
23,Ic_S4_P3E.1_K3.1_C3.1_H3.1_A3.1_[T5A]_F3.1_[A8T]_T3.1 (ssRNA) RNA: UUUGACAACUGAUCGUUCUUUCUUGUAAAUUUUCUUUCUCGAUCAGUUGUCUUU,19.3
24,Ic_S4_P3E.1_K3.1_C3.1_H3.1_A3.1_[T5C]_F3.1_[T7C]_[A8T]_T3.1 (ssRNA) RNA: UUUGACAACUGAUCGUUCUUUCUUGUACACUUUCUUUCUCGAUCAGUUGUCUUU,5.34
25,Ic_S4_P3E.1_K3.1_C3.1_H3.1_A3.1_[T5A]_[A6T]_F3.1_[T7C]_[A8T]_T3.1 (ssRNA) RNA: UUUGACAACUGAUCGUUCUUUCUUGUAAUCUUUCUUUCUCGAUCAGUUGUCUUU,18.3

row,Binder,Kd [nM]
1,Ic_S4_P3E.1_K3.1_C3.1_H3.1_A3.1_[T5A]_[A6T]_F3.1_T3.1 (ssRNA) RNA: UUUGACAACUGAUCGUUCUUUCUUGUAAUUAUUCUUUCUCGAUCAGUUGUCUUU,65.6
2,Ic_S4_P3E.1_K3.1_C3.1_H3.1_A3.1_[T5A]_[A6T]_F3.1_[T7A]_[A8C]_T3.1 (ssRNA) RNA: UUUGACAACUGAUCGUUCUUUCUUGUAAUACUUCUUUCUCGAUCAGUUGUCUUU,226
3,Ic_S4_P3E.1_K3.1_C3.1_H3.1_A3.1_[A6C]_F3.1_[T7A]_[A8C]_T3.1 (ssRNA) RNA: UUUGACAACUGAUCGUUCUUUCUUGUAUCACUUCUUUCUCGAUCAGUUGUCUUU,80.4
4,Ic_S4_P3E.1_K3.1_C3.1_H3.1_A3.1_[A6C]_F3.1_[T7A]_[A8T]_T3.1 (ssRNA) RNA: UUUGACAACUGAUCGUUCUUUCUUGUAUCAUUUCUUUCUCGAUCAGUUGUCUUU,8.55
5,Ic_S4_P3E.1_K3.1_C3.1_H3.1_A3.1_[T5A]_[A6T]_F3.1_[A8G]_T3.1 (ssRNA) RNA: UUUGACAACUGAUCGUUCUUUCUUGUAAUUGUUCUUUCUCGAUCAGUUGUCUUU,220
6,Ic_S4_P3E.1_K3.1_C3.1_H3.1_A3.1_[A6C]_F3.1_[T7C]_[A8G]_T3.1 (ssRNA) RNA: UUUGACAACUGAUCGUUCUUUCUUGUAUCCGUUCUUUCUCGAUCAGUUGUCUUU,392
7,Ic_S4_P3E.1_K3.1_C3.1_H3.1_A3.1_[T5A]_[A6C]_F3.1_[A8T]_T3.1 (ssRNA) RNA: UUUGACAACUGAUCGUUCUUUCUUGUAACUUUUCUUUCUCGAUCAGUUGUCUUU,21.6
8,Ic_S4_P3E.1_K3.1_C3.1_H3.1_A3.1_[T5A]_[A6C]_F3.1_[A8C]_T3.1 (ssRNA) RNA: UUUGACAACUGAUCGUUCUUUCUUGUAACUCUUCUUUCUCGAUCAGUUGUCUUU,78.8
9,Ic_S4_P3E.1_K3.1_C3.1_H3.1_A3.1_[A6T]_F3.1_[T7A]_[A8G]_T3.1 (ssRNA) RNA: UUUGACAACUGAUCGUUCUUUCUUGUAUUAGUUCUUUCUCGAUCAGUUGUCUUU,944
10,Ic_S4_P3E.1_K3.1_C3.1_H3.1_A3.1_[A6T]_F3.1_[T7A]_[A8C]_T3.1 (ssRNA) RNA: UUUGACAACUGAUCGUUCUUUCUUGUAUUACUUCUUUCUCGAUCAGUUGUCUUU,123
11,Ic_S4_P3E.1_K3.1_C3.1_H3.1_A3.1_[T5A]_[A6C]_F3.1_[T7A]_[A8T]_T3.1 (ssRNA) RNA: UUUGACAACUGAUCGUUCUUUCUUGUAACAUUUCUUUCUCGAUCAGUUGUCUUU,15.1
12,Ic_S4_P3E.1_K3.1_C3.1_H3.1_A3.1_[T5A]_[A6T]_F3.1_[T7A]_T3.1 (ssRNA) RNA: UUUGACAACUGAUCGUUCUUUCUUGUAAUAAUUCUUUCUCGAUCAGUUGUCUUU,126
13,Ic_S4_P3E.1_K3.1_C3.1_H3.1_A3.1_[A6C]_F3.1_[A8G]_T3.1 (ssRNA) RNA: UUUGACAACUGAUCGUUCUUUCUUGUAUCUGUUCUUUCUCGAUCAGUUGUCUUU,23.4
14,Ic_S4_P3E.1_K3.1_C3.1_H3.1_A3.1_[A6C]_F3.1_[T7C]_[A8T]_T3.1 (ssRNA) RNA: UUUGACAACUGAUCGUUCUUUCUUGUAUCCUUUCUUUCUCGAUCAGUUGUCUUU,27.6
15,Ic_S4_P3E.1_K3.1_C3.1_H3.1_A3.1_[A6T]_F3.1_[T7G]_[A8G]_T3.1 (ssRNA) RNA: UUUGACAACUGAUCGUUCUUUCUUGUAUUGGUUCUUUCUCGAUCAGUUGUCUUU,2130
16,Ic_S4_P3E.1_K3.1_C3.1_H3.1_A3.1_[A6T]_F3.1_T3.1 (ssRNA) RNA: UUUGACAACUGAUCGUUCUUUCUUGUAUUUAUUCUUUCUCGAUCAGUUGUCUUU,15.3
17,Ic_S4_P3E.1_K3.1_C3.1_H3.1_A3.1_[A6G]_F3.1_[T7C]_[A8T]_T3.1 (ssRNA) RNA: UUUGACAACUGAUCGUUCUUUCUUGUAUGCUUUCUUUCUCGAUCAGUUGUCUUU,54.5
18,Ic_S4_P3E.1_K3.1_C3.1_H3.1_A3.1_[A6T]_F3.1_[A8G]_T3.1 (ssRNA) RNA: UUUGACAACUGAUCGUUCUUUCUUGUAUUUGUUCUUUCUCGAUCAGUUGUCUUU,46.7
19,Ic_S4_P3E.1_K3.1_C3.1_H3.1_A3.1_[A6C]_F3.1_[T7G]_[A8T]_T3.1 (ssRNA) RNA: UUUGACAACUGAUCGUUCUUUCUUGUAUCGUUUCUUUCUCGAUCAGUUGUCUUU,178
20,Ic_S4_P3E.1_K3.1_C3.1_H3.1_A3.1_F3.1_[T7G]_[A8T]_T3.1 (ssRNA) RNA: UUUGACAACUGAUCGUUCUUUCUUGUAUAGUUUCUUUCUCGAUCAGUUGUCUUU,23.1
21,If_S4_P3E.1_K3.1_C3.1_H3.1_A3.1_F3.1_T3.1 (ssRNA) RNA: UUUGACAACUGAUCGUUCUUUCUUGUAUAUAUUCUUUCUCGAUCAGUUGUCUUU,1.99
22,Ic_S4_P3E.1_K3.1_C3.1_H3.1_A3.1_[T5A]_[A6C]_F3.1_[T7G]_[A8T]_T3.1 (ssRNA) RNA: UUUGACAACUGAUCGUUCUUUCUUGUAACGUUUCUUUCUCGAUCAGUUGUCUUU,270
23,Ic_S4_P3E.1_K3.1_C3.1_H3.1_A3.1_[T5A]_[A6C]_F3.1_[T7A]_[A8C]_T3.1 (ssRNA) RNA: UUUGACAACUGAUCGUUCUUUCUUGUAACACUUCUUUCUCGAUCAGUUGUCUUU,144
24,Ic_S4_P3E.1_K3.1_C3.1_H3.1_A3.1_[A6G]_F3.1_T3.1 (ssRNA) RNA: UUUGACAACUGAUCGUUCUUUCUUGUAUGUAUUCUUUCUCGAUCAGUUGUCUUU,27.4
